Assay results: IntAct's records for PubMed 25588830

B1: Septin-12 (Homo sapiens), Q8IYM1 (parent)
chain: MDPLRRSPSPCLSSQPSSPSTPPCEMLGPVGIEAVLDQLKIKAMKMGFEFNIMVVGQSGLGKSTMVNTLFKSKVWKSNPPGLGVPTPQTLQLHSLTHVIEEKGVKLKLTVTDTPGFGDQINNDNCWDPILGYINEQYEQYLQEEILITRQRHIPDTRVHCCVYFVPPTGHCLRPLDIEFLQRLCRTVNVVPVIARADSLTMEEREAFRRRIQQNLRTHCIDVYPQMCFDEDINDKILNSKLRDRIPFAVVGADQEHLVNGRCVLGRKTKWGIIEVENMAHCEFPLLRDLLIRSHLQDLKDITHNIHYENYRVIRLNESHLLPRGPGWVNLAPASPGQLTTPRTFKVCRGAHDDSDDEF
partner: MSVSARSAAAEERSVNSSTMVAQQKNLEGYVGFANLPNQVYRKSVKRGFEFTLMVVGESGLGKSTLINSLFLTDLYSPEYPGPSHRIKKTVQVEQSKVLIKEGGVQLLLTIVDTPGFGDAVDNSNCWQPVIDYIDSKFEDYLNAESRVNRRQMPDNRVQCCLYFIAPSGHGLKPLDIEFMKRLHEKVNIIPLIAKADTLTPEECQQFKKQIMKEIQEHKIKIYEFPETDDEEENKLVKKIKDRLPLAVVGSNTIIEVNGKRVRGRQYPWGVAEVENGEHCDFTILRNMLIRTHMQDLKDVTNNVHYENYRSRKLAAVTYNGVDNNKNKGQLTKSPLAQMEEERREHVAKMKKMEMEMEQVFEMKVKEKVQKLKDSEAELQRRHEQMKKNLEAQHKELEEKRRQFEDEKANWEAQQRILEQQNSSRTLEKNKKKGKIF
B2: Septin-12 (Homo sapiens), Q8IYM1 (parent)
chain: B1 chain
partner: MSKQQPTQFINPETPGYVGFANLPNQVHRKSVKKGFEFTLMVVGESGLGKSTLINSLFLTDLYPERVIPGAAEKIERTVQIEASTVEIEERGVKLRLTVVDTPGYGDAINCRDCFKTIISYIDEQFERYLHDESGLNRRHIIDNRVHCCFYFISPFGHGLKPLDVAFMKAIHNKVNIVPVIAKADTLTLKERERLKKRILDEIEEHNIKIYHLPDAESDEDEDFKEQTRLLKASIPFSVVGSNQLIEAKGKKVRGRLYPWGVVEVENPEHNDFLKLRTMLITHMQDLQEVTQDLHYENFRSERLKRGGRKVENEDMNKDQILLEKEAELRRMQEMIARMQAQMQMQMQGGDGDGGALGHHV
B3: Septin-12 (Homo sapiens), Q8IYM1 (parent)
chain: B1 chain
partner: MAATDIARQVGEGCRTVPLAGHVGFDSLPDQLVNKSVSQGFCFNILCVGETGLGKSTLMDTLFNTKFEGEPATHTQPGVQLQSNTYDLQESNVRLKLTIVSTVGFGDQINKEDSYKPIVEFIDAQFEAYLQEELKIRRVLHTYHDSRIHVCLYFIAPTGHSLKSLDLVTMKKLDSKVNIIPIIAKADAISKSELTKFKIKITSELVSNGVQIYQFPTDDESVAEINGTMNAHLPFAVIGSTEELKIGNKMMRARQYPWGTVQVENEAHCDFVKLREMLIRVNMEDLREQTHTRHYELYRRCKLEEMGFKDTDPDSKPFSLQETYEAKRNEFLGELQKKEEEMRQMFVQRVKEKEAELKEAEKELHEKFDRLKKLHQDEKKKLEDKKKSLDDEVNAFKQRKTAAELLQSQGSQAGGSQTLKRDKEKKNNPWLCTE
B4: Septin-12 (Homo sapiens), Q8IYM1 (parent)
chain: B1 chain
partner: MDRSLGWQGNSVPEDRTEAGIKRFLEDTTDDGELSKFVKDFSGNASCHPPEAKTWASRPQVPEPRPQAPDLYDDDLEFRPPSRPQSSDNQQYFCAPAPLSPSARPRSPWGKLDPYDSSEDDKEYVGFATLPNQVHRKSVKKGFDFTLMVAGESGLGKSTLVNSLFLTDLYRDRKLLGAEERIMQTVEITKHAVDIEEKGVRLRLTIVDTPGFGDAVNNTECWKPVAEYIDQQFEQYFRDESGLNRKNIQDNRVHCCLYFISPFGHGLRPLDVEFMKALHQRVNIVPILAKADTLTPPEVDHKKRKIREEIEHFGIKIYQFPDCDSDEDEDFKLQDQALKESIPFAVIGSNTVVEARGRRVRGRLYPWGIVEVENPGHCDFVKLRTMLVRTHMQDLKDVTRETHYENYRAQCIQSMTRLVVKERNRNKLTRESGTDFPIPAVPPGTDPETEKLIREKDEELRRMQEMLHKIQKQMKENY

Variants of: B1
Conditions: with sept7_human SEPTIN7, Q16181
For T89M, the “effect of a mutation on the interaction” value was “disrupting interaction strength”. In the case of D197N, the “effect of a mutation on the interaction” value is reported as “disrupting interaction strength”.

Variants of: B1
Conditions: with sept7_human SEPTIN7, Q16181
Remark: another data set of the same source
With T89M the “effect of a mutation on the interaction” value was “decreasing interaction”. For D197N, the “effect of a mutation on the interaction” value was “disrupting interaction”.

Variants of: B2
Conditions: with sept2_human SEPTIN2, Q15019
In the case of D197N, the “effect of a mutation on the interaction” value is reported as “disrupting interaction”.

Variants of: B3
Conditions: with sept6_human SEPTIN6, Q14141
With D197N the “effect of a mutation on the interaction” value was “disrupting interaction”.

Variants of: B4
Conditions: with sept4_human SEPTIN4, O43236
For D197N, the “effect of a mutation on the interaction” value was “disrupting interaction”.
